Data reported in the nanobody polyreactivity screen of Harvey et al. (2022).

Assay: yeast display, Sf9 membrane polyspecificity reagent, FACS + sequencing; frameworks hold sequencing errors
Summary of the method: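 Galactose induction of a Saccharomyces cerevisiae BJ5465 synthetic nanobody display library ran 36–48 hours. The cells were then stained for 1 hour at 4 °C with 10% biotinylated, detergent-solubilized Sf9 membrane reagent, pulled down on streptavidin microbeads and FACS-sorted into low and high (top ~1%) gates on expression and reagent-binding fluorescence. Labels for polyreactivity follow the gate of origin.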
With “QVQLVESGGGLVQAGGSLRLSCAASGIISPFYAMGWYRQATGKERELVADISTGGTTTYADSVKGRFTISRDNAKNTVYLQLNSLKPEDTAVYYCNAEVSLTYYWIVWASYDYWGQGTQVTVSS” the “polyreactivity (PSR sort gate)” value was “low polyreactivity”. For “QVQLVESGGGLVQAGGSLRLSCAASGIISRVYAMGWYRQAPGKERELVAAISGSGGTTYYADSVKGRFTISRDNAKNTVYLQMNSLKPEDTAVYYCAARYKALYDYWGQGTQVTVSS”, the “polyreactivity (PSR sort gate)” value was “high polyreactivity”. With “QVQLVESGGGLVQAGGSLRLSCAASGIISSVYAMGWYRPAPGKERELVAAISGSGGSTYYADSVKGRFTISRDNAKNTVYLQMNSLKAEDTAVYYCAKGYQYQGNSYGYWGQGTQVTVSS” the “polyreactivity (PSR sort gate)” value was “low polyreactivity”. In the case of “QVQLVESGGGLVQAGGSLRLSCAASGIIVDFYAMGWYRQAPGKERELVAGISWGGGTTYYADSVKGRFTISRDNAKNTVYLQMNSLKPEDTAVYYCAAVAFQTRYYYWGQGTQVTVSS”, the “polyreactivity (PSR sort gate)” value is reported as “high polyreactivity”. With “QVQLVESGGGLVQAGGSLRLSCAASGIIVDYYAMGWYRQAPGKERELVATITSGGSTNYADSVKGRFTISRDNAKNTVYLPMNSVKPEDTAVYYCAARTYWFPDIYPGLGMDYWGQGTQVTVSS” the “polyreactivity (PSR sort gate)” value was “low polyreactivity”. In the case of “QVQLVESGGGLVQAGGSLRLSCAASGIIYIGNAMGWYRQAPGKERELVAAITYTGGSTYYADSVKGRFTISRDNAKNTVYLQMNSLKPEDTAVYYCDFDRTHLEDDYWGQGTQVTVSS”, the “polyreactivity (PSR sort gate)” value is reported as “low polyreactivity”. For “QVQLVESGGGLVQAGGSLRLSCAASGIIYTTNAMGWYRQAPGKERELVAAIRRSGSTYYADSVKGRFTISRDNAKNNVYLQMNSLKPEDTAVYYCNAKVHYGSRGDYWGQGTQLTVSS”, the “polyreactivity (PSR sort gate)” value was “low polyreactivity”. With “QVQLVESGGGLVQAGGSLRLSCAASGIIYYLYAMGWYRHAPGKERELVATISRRGGSTYYADSVKGRFTISRDNAKNTVYLQMNSLKPEDTAVYYCATGHYSVGRSFSSGSYEYWGQGTQVTVSS” the “polyreactivity (PSR sort gate)” value was “high polyreactivity”. For “QVQLVESGGGLVQAGGSLRLSCAASGILFGPYAKGWYRQAPGKERELVAVISGSGGSTNYADSVKGRFTISRDNGKYTVYLQMNSLKPEVTAVYYCAADSLSKVCYYYWGEGTQVTVSS”, the “polyreactivity (PSR sort gate)” value was “low polyreactivity”. In the case of “QVQLVESGGGLVQAGGSLRLSCAASGILFYLNAMGWYRQAPGKERELVASISTGGGTNYADSVKGRFTISRDYAKNTVYLQMNSLKPEDTAFYYCAAKRRNTYTLYYYWGQGTQVTVSS”, the “polyreactivity (PSR sort gate)” value is reported as “high polyreactivity”. For “QVQLVESGGGLVQAGGSLRLSCAASGINFGKYAMGWYRQAPGKERELVAAITSGDSTYYADSVKGRFTISRDNAKNTVYLQMNSLKPEDTAVYYCNADAWRSQSWWHGLMEYWGQGTQVTVSS”, the “polyreactivity (PSR sort gate)” value was “low polyreactivity”. With “QVQLVESGGGLVQAGGSLRLSCAASGINFGSNAMGWYRQAPGKERELVAAISKRGGNTYYADSVKGRFTISRDNAKNTVYLQMNSLKPEYTAVYYCATQQYLYAQKSYVEMDYWGQGTQVSVSS” the “polyreactivity (PSR sort gate)” value was “high polyreactivity”. For “QVQLVESGGGLVQAGGSLRLSCAASGINFNLYAMGWYRQAPGKERELVAAISRSGDSTNYADSVKGRFTISRDNAKNTVDLQMNSLKPEDTAVYYCAVGYRYLKWVDYWGQGTQVTVSS”, the “polyreactivity (PSR sort gate)” value was “high polyreactivity”. For “QVQLVESGGGLVQAGGSLRLSCAASGINFVGYAMGWDRQAPGKERELVAAISTSSRTYYADSVKGRFTISRDNAKNTVYIQMNSLKPEDTAVYYCNARGTRWYYRHDYWGQGTQVTVSS”, the “polyreactivity (PSR sort gate)” value was “high polyreactivity”. With “QVQLVESGGGLVQAGGSLRLSCAASGINFVKYTMGWYRQAPGKERELVAAITWTVGSTYYADSVKGRFTISRDNAKNTVYFQMNSLKPEDTAVYYCAARYYYWGQGTQVTGSS” the “polyreactivity (PSR sort gate)” value was “high polyreactivity”. With “QVQLVESGGGLVQAGGSLRLSCAASGINIRYYAMGWYRQAPGKERELVADITTGGTTYYADSVKGRFTISRDNAKNTVYLQMNSLKPEDTAVYYCAAYYFPTYSKTYIYPFDYWGQGTQVTVSS” the “polyreactivity (PSR sort gate)” value was “low polyreactivity”. For “QVQLVESGGGLVQAGGSLRLSCAASGINISYYAMGWYRQAPGKEREFVAAISWSVGSTYYADSVKGRFTISRDNAKYTVYLQMNSLKPEDTAVYYCAAEDGYWPTYYYWGQGSQVTVSS”, the “polyreactivity (PSR sort gate)” value was “high polyreactivity”. With “QVQLVESGGGLVQAGGSLRLSCAASGINTAGYAMGWYRQAPGKERELVAAISTSGTSTYYADSVKGRFTISRDNAQNTVYLQMNSLQPEDTAVYYCAYTNYYGVGYYYWGQGTLVTVSS” the “polyreactivity (PSR sort gate)” value was “low polyreactivity”. With “QVQLVESGGGLVQAGGSLRLSCAASGINYTFYAMGWYRQAPGKERELVAAISYSSGSTYADSVKGRFTISRDNAKNTVYLQMNSLKPEDTAVYYCAVDLFPGHSYTYDYWGQGTQVTVSS” the “polyreactivity (PSR sort gate)” value was “low polyreactivity”. For “QVQLVESGGGLVQAGGSLRLSCAASGIQVYNAMGWYRQAPGKERELVAAISARGGRTYYADSVKGRFTISRDNAKNTVYLQMNSLKPEDTAVYYCATLETTGVNYWGQGTLVTVSS”, the “polyreactivity (PSR sort gate)” value was “high polyreactivity”. With “QVQLVESGGGLVQAGGSLRLSCAASGISFAIYAMGWYRQAPGKERELVAAISARGGTYYADSVKGRFTISRDNANNTVYSQMNSLKPEDTAVYYCNTDYVSRDDWDYRRYDYWGQGTQVTVSS” the “polyreactivity (PSR sort gate)” value was “low polyreactivity”. For “QVQLVESGGGLVQAGGSLRLSCAASGISFNGNAMGWYRQAPGKERELVAAISGSGGSTYYADSVKGRFTISRDNAKNSVYLQMNSLKQEDTAVYYCNALYGRRVYVGYDYWGQGSQVTVSS”, the “polyreactivity (PSR sort gate)” value was “high polyreactivity”. For “QVQLVESGGGLVQAGGSLRLSCAASGITFADNSMGWYRQAPGKERELVAAISRGGSTYYADSVKGRFTISRDNAKNTVYLQMNSLKPEDTAVYYCAAAGWWRAWGSYLRFYGYDYWGQGTQVTVSS”, the “polyreactivity (PSR sort gate)” value was “low polyreactivity”. For “QVQLVESGGGLVQAGGSLRLSCAASGITFADYAMGRYRQAPGKERELVAAISSGTSTYYADSVKGRFTISPDNAKNTVYLQMNSLKPEDTAVYYFYARYWGRVPPPAYDPRRYWGQGTQVTVSS”, the “polyreactivity (PSR sort gate)” value was “high polyreactivity”. For “QVQLVESGGGLVQAGGSLRLSCAASGITFADYVMGWYRPAPGKERELVAAISTDGGSTYYADSVKGRFTISRDNAKNTVYLQMNSLKPEDTAVYYCASEWSYPGYEFDYWGQGTQVTVSS”, the “polyreactivity (PSR sort gate)” value was “high polyreactivity”. For “QVQLVESGGGLVQAGGSLRLSCAASGITFAKYAMGWYRQAPGKERELVAAISTSGGSTYYADSVKGRFTISRDNAKNTVYLQMYSLKPEDTAVYYCNVDTYIWYYLRYYNYWGQGTQVTVSS”, the “polyreactivity (PSR sort gate)” value was “high polyreactivity”. In the case of “QVQLVESGGGLVQAGGSLRLSCAASGITFAPYAMGWYRQAPGKERELVAVISSGGSTKYADSVKGRFTISRDNAKNTVYLQMNSLKPEDTAVYYCAASAPRGYGYKYYYWGQGTQVTVSS”, the “polyreactivity (PSR sort gate)” value is reported as “high polyreactivity”. In the case of “QVQLVESGGGLVQAGGSLRLSCAASGITFARYTMGWYRQAPGKERELVAAISWSGTSTYYADSVKGRFTISRDNAKNTVYLQMNSLKPEDTAVYYCAAGYSASRKVDYWGQGTQVTVSS”, the “polyreactivity (PSR sort gate)” value is reported as “high polyreactivity”. In the case of “QVQLVESGGGLVQAGGSLRLSCAASGITFAYYAMGWYRQAPGKERELVAGISKSGGRTYYADSVKGRFTISRDNAKNTVYVQLNSLKPEYTAVYYCASQDARRIVYDRYYYWGQGTQVTVSS”, the “polyreactivity (PSR sort gate)” value is reported as “high polyreactivity”. For “QVQLVESGGGLVQAGGSLRLSCAASGITFAYYVMGWYRPAPGKERELVAVISSRGSRTFYADSVKGRFTISRDNAKNTVYLQMNSLKPEDTAVYYCAADSTYSYYWGQGTQVTVSS”, the “polyreactivity (PSR sort gate)” value was “high polyreactivity”. For “QVQLVESGGGLVQAGGSLRLSCAASGITFDGYAMGWYRQAPGKEREFVAAISRSGTSTYYADSVKGRFTISRDNAKNTVYLQMNSLKPEDSAVYYCNKKWPRLYYYWGQGTQVTVSS”, the “polyreactivity (PSR sort gate)” value was “high polyreactivity”. In the case of “QVQLVESGGGLVQAGGSLRLSCAASGITFDHYAMGWYRPAPGKERELVATIRGSGTSTYYADSVKGRFTISRDNAKNTVYLQMHSLKPEDTAVYYCAARGRYRQFNYWGQGTQVTVSS”, the “polyreactivity (PSR sort gate)” value is reported as “high polyreactivity”. With “QVQLVESGGGLVQAGGSLRLSCAASGITFDKNTMGWYRQAPGKERELVAAISARGGSTYYADSVKGRFTISRDNAKYTVYLQMNSLKPEDTAVYYCAATRSYSYRTVYRRKYNYWGQGTQVTVSS” the “polyreactivity (PSR sort gate)” value was “high polyreactivity”. With “QVQLVESGGGLVQAGGSLRLSCAASGITFDKYALGWYRQAPGNERELVAAISGSDGSTYYADSVKGRFTISRDNAKNTVYLQNNSLKPEDTAVYYCAAESEYAGTYEYDYWGQGTQVTVSS” the “polyreactivity (PSR sort gate)” value was “low polyreactivity”. In the case of “QVQLVESGGGLVQAGGSLRLSCAASGITFDKYAMGWYRQAPGKERELVARITSGGGTNYADSVKGRFTISRDNAKNTVYLQMNSLKPEDTAVYSCNKRTSPKRFDYWGQGTQVTVSS”, the “polyreactivity (PSR sort gate)” value is reported as “high polyreactivity”. With “QVQLVESGGGLVQAGGSLRLSCAASGITFDLYAMGWFRQAPGKERELVAAISISSTSTYYADSVKGRFTISRDNAKNTVYLQMNSLKPEDTAVYYCNAVPSSKTFWFDYWGQGTQVTVSS” the “polyreactivity (PSR sort gate)” value was “low polyreactivity”. With “QVQLVESGGGLVQAGGSLRLSCAASGITFDNYAMGWYRQAPGKEWELVAAISSDDNTTYADSVKGRFTISRDNAKNTVYLQMNSLKPEDSAVYYCAADSRIYGYWEYDYCGQGTQVTVSS” the “polyreactivity (PSR sort gate)” value was “low polyreactivity”. With “QVQLVESGGGLVQAGGSLRLSCAASGITFDNYAMGWYRQAPGKEWELVAAISSDDNTTYADSVKGRFTISRDNAKNTVYLQMNSLKPEDTAVYYCAADSRIYGYWEYDYWGQGTQVTVST” the “polyreactivity (PSR sort gate)” value was “low polyreactivity”. In the case of “QVQLVESGGGLVQAGGSLRLSCAASGITFDQNAMGWSRQEPGKESEFVAAISVSGARTYYADSVKGRFTISRDNAKNTVYLQMNSLKPEDTAVYYCAAYGGTRYYYSYYYWGQGTQVTVSS”, the “polyreactivity (PSR sort gate)” value is reported as “high polyreactivity”. In the case of “QVQLVESGGGLVQAGGSLRLSCAASGITFDSYALGSYRQAPGKERELVAAISGSGGSTYYADSVKGRFTISRDNAKNTVYLQMNSLKPEDTAVYYCAADWYPTGFYYWGQGTQVTVSS”, the “polyreactivity (PSR sort gate)” value is reported as “low polyreactivity”. For “QVQLVESGGGLVQAGGSLRLSCAASGITFDSYAMGWYRQSPGKEREWVDAISYSGGSTYYADSVKGRFTISRDNAKNTVNLQMNRLKPEDTAVYYFAAASDEDYDYWGQGTQVTVSS”, the “polyreactivity (PSR sort gate)” value was “low polyreactivity”. In the case of “QVQLVESGGGLVQAGGSLRLSCAASGITFDTYVMGWYRQAPGKERELVAAISNSDGSTYYADSVKGRFTISRDNAKNTVYLQMNSLKPEDTAVYYCNAQSYYYWHLRYDYWGQGTQVTVSS”, the “polyreactivity (PSR sort gate)” value is reported as “high polyreactivity”. In the case of “QVQLVESGGGLVQAGGSLRLSCAASGITFDYYAMGWYRQAPGKERELVAAISRSGGSTYYADSVKGRFTISRDKAKNTVYLQMNSLKPEDTAVYYCAAYALTIRAYYYWGQGTQVTVSS”, the “polyreactivity (PSR sort gate)” value is reported as “high polyreactivity”.
